B1: TPR t1 (parent)
chain: GACCAAUCUGCCCUCAGAGCUCGAGAACAUCUUCGGAUGCAGAGGAGGCAGGCUUCGGUGGCGCGAUAGCGCCAACGUCCUCAACCUCCAAUGCAUCCCACCACAUGAUGAUGCCUGAAGAGCCUUGGUUUUUUG

Variants of: B1
Test: polymerase ribozyme fitness, log enrichment relative to wild type (log ratio); higher = more active; in vitro selection for triplet polymerase activity
Method in brief: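 Mutant libraries for each subunit of a heterodimeric triplet polymerase ribozyme were made by PCR and then transcribed. Each library underwent one round of in vitro selection in triplicate: annealing with a biotinylated primer, the partner subunit and triplets, frozen incubation at −7 °C, gel excision of extended constructs, streptavidin-bead capture and RT-PCR. Input and output libraries were Illumina-sequenced, and only genotypes with ≥10 input reads and ≥1 read per output were kept. Fitness is the logarithm, base 2, of genotype enrichment over wild-type enrichment, computed from inverse-variance-weighted replicate averages.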

Point of comparison: C56U A83U, “polymerase ribozyme fitness (log ratio)” value 0.108. Against it:
- C56U G57C C70A U92A — lower, -6.45
- U55G U132A — lower, -0.283
- U55G G58C C79A — lower, -3.4
- U55A G57A G61A G77A U87A A100C — lower, -1.72
- U55C C56A A90G C94G G110C U116A A121G — lower, -6.03
- C56A C104U U106A U109A — lower, -5.35
- C56A G71U U81C A111U C115U — lower, -6.9
- C56G C86A — lower, -1.6
- C56G G71U — lower, -3.27
- C56G G71C — lower, -3.19
- G57U C94G — lower, -1.04
- C56U G69A — lower, -3.53
- C56U G69C — lower, -4.69
- C56A G128U — lower, -2.53
- C56G C123A — within 0.2 log units, 0.0294
- C56G C123U — higher, 0.748
- C56G G135U — lower, -1.35
- C56A G71U G122A — lower, -2.05
- C56U C73G — lower, -2
- C56A G69C C79U G113U G117A — lower, -5.4
- C56A A83U C85U C99U — lower, -3.58
- U54A G57C A90G C114U U132A — lower, -2.18
- C56G A111G — within 0.2 log units, 0.245
- C56G A111C — lower, -0.855
- C56U C80A — lower, -1.98
- G58C A83U C85A U112G U129G — lower, -0.79
- G57A C94G — lower, -2.36
- C56U C62U C101U G122A — lower, -2.35
- C56A C80G C86U — lower, -3.12
- C56U A66U G69U C80A A121C U130A — lower, -6.49
- U55A G71U C102U A121G U132A — higher, 0.31
- U55C C56A A84C A111G U129A — lower, -2.42
- G58A U78G — within 0.2 log units, 0.00664
- U55G G60U A103U — lower, -5.31
- G57A G63U — lower, -2.43
- U54A U133G — lower, -0.274
- C56U C76G — lower, -2.08
- C56U C114U — lower, -1.71
- C56G U81A U87A — lower, -1.8
- U54A C115U U131C G135C — lower, -1.35
- C56U C72U U112G G117U C124U — lower, -2.21
- G57A U78C U87C C104U G113A — lower, -1.61
- C56U G69U C82U A84U — lower, -3
- U54A G69U G128C U130A U132A — lower, -2.67
- C56U C62G — lower, -5.27
- C56U C62A — lower, -5.47
- C56U C72G U129A — lower, -1.89
- G58A C73A A84G A103G C124G — lower, -7.11
- G58A C76U — lower, -0.743
- G57U C88U A108G — lower, -3.61
- U55C C82A C124G — higher, 1.37
- U55C U130G — lower, -1.43
- C56A U132A — within 0.2 log units, 0.197
- G57U C82G G110U — lower, -2.25
- C56U G69C C89U C123U — lower, -7.26
- G58A C85U — lower, -1.88
- U55G C115U — lower, -0.797
- C56U C98A — lower, -5.17
- C56U C99A — lower, -6.27
- C56U C99U — lower, -3.34
- G58A C86U — lower, -0.881
- C56U A111C — lower, -0.414
- C56U C102U — lower, -2.28
- C56U C102A — lower, -1.94
- G57U A105G G113A — lower, -4.1
- G57C C79U G110A — lower, -3.76
- C56U A105C C123U — lower, -1.18
- C56U G65C — lower, -5.42
- U55A A83G — lower, -0.95
- C56A G61A A111G U125C — lower, -2.99
- G58C A111C U112C — within 0.2 log units, -0.0453
- U55G G61U C114U — lower, -1.66
- G58C A111G — higher, 0.509
- C56U U96C C99U — lower, -3.29
- C56U C70U U78G U125G — lower, -1.77
- C56U C89U — lower, -0.281
- U55C G60A C94A G113U — lower, -4.46
- C56G G69C A83C C104U — lower, -5.43
- C56A U87A U106A — lower, -0.176
- C56U G60A C98U G117C C124U U130A — lower, -6.06
- C56U U78G G93U G113A — lower, -2.45
- C56U A83C A121U G127U U133G — higher, 1.28
